Experimental data reported in patent publication US20220175921A1 (published 2022).

T1: human GITR, membrane bound (on activated human T cells or on 3A9-hGITR cells) (UniProt Q9Y5U5 26-241)
T1 chain: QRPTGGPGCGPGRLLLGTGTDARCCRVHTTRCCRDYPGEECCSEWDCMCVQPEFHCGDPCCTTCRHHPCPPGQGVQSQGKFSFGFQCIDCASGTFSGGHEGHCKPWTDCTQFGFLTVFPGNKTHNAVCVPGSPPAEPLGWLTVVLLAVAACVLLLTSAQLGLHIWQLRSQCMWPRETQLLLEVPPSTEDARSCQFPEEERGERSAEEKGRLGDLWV

T2: cynomolgus GITR, membrane bound (on activated cynomolgus T cells)
T2 chain: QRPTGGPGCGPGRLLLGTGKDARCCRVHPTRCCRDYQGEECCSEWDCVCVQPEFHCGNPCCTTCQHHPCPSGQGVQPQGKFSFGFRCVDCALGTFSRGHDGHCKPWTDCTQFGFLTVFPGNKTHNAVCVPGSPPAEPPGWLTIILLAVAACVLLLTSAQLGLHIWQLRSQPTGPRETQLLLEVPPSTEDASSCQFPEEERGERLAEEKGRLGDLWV


Tests used:
[1] = molecular target: T1, human GITR, membrane bound (on …); assay: FACS
[2] = molecular target: T2, cynomolgus GITR, membrane bound (on …); assay: FACS

EC50 [1]	EC50 [2]	Binder
163 pM	–	anti-GITR.g2.g1.1f (antibody) chain 1: QVQLVESGGGVVQPGRSLRLSCAASGFTFSSYGMHWVRQAPGKGLEWVAVIWYEGSNKYYADSVKGRFTISRDNSKNTLYLQMNSLRAEDTAVYYCARGGSMVRGDYYYGMDVWGQGTTVTVSSASTKGPSVFPLAPCSRSTSESTAALGCLVKDYFPEPVTVSWNSGALTSGVHTFPAVLQSSGLYSLSSVVTVPSSNFGTQTYTCNVDHKPSNTKVDKTVERKCCVECPPCPAPPVAGPSVFLFPPKPKDTLMISRTPEVTCVVVDVSHEDPEVKFNWYVDGVEVHNAKTKPREEQYNSTYRVVSVLTVLHQDWLNGKEYKCKVSNKALPSSIEKTISKAKGQPREPQVYTLPPSREEMTKNQVSLTCLVKGFYPSDIAVEWESNGQPENNYKTTPPVLDSDGSFFLYSKLTVDKSRWQQGNVFSCSVMHEALHNHYTQKSLSLSPG chain 2: not shown
277 pM	–	anti-GITR.g2 (antibody) chain 1: QVQLVESGGGVVQPGRSLRLSCAASGFTFSSYGMHWVRQAPGKGLEWVAVIWYEGSNKYYADSVKGRFTISRDNSKNTLYLQMNSLRAEDTAVYYCARGGSMVRGDYYYGMDVWGQGTTVTVSSASTKGPSVFPLAPCSRSTSESTAALGCLVKDYFPEPVTVSWNSGALTSGVHTFPAVLQSSGLYSLSSVVTVPSSNFGTQTYTCNVDHKPSNTKVDKTVERKCCVECPPCPAPPVAGPSVFLFPPKPKDTLMISRTPEVTCVVVDVSHEDPEVQFNWYVDGVEVHNAKTKPREEQFNSTFRVVSVLTVVHQDWLNGKEYKCKVSNKGLPAPIEKTISKTKGQPREPQVYTLPPSREEMTKNQVSLTCLVKGFYPSDIAVEWESNGQPENNYKTTPPMLDSDGSFFLYSKLTVDKSRWQQGNVFSCSVMHEALHNHYTQKSLSLSPGK chain 2: not shown
–	142000 pM	3C3 (antibody, V domains shown) VH: QVQLQQWGAGLLKPSETLSLTCAVYGGSFSGYYWTWIRQPPGKGLEWIGKINHSGNTNYNPSLKSRVTISVDTSKNQFSLKLSSVTAADTAVYYCARLGAFDAFDIWGQGTMVTVSS VL: DIQMTQSPSSLSASVGDRVTITCRASQGISSWLAWYQQKPEKAPKSLIYAASSLQSGVPSRFSGSGSGTDFTLTISSLQPEDFATYYCQQYNSYPYTFGQGTKLEIKR
